Results taken from PMC11055898 (2024).

Legend:
human CD64 (FcgRI) [1] = target: T1, human CD64 (FcgRI) (human, UniProt P12314 16-374, biotin (biotinylated Fc receptors)); test: SPR
human CD64 (FcgRI) [2] = target: T1, human CD64 (FcgRI); test: SPR; remark: listed apart in the source
mouse CD16-2 [3] = test: SPR
mouse CD64 [4] = test: SPR
mouse CD16 [5] = test: SPR
mouse CD16-2 [6] = test: SPR; remark: listed apart in the source
mouse CD64 [7] = test: SPR; remark: listed apart in the source
mouse CD16 [8] = test: SPR; remark: listed apart in the source
human FcRn [9] = test: SPR; pH 6.2
human FcRn [10] = test: SPR; pH 6.2; remark: listed apart in the source

T1 sequence (P12314 16-374): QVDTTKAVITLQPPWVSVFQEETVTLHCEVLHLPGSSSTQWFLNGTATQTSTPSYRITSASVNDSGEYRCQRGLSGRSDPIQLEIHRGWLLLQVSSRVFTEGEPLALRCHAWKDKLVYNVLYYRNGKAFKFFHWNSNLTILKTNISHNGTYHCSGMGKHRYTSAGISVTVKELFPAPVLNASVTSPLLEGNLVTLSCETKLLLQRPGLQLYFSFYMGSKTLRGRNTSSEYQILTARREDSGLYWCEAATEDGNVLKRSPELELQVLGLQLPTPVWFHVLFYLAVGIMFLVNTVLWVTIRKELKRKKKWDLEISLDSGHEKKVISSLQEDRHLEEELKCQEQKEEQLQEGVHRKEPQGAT

B1: Ab11 IgGh47 (antibody)
chain 1: QVTLKESGPVLVKPTETLTLTCTVSGFSLSNAKMGVSWIRQPPGKALEWLAHIFSNDEKSYSTSLKSSLTISKDTSKSQVVLTMTNMDPVDTATYYCARLLWFGGNYFDYWGQGTLVTVSS
chain 2: not shown
koff (human CD64 (FcgRI) [1]): 0.00017 s⁻¹
Kd (human CD64 (FcgRI) [2]): 2.1 nM
koff (mouse CD16-2 [3]): 0.0018 s⁻¹
koff (mouse CD64 [4]): 0.00083 s⁻¹
koff (mouse CD16 [5]): 0.00074 s⁻¹
Kd (mouse CD16-2 [6]): 24 nM
Kd (mouse CD64 [7]): 7 nM
Kd (mouse CD16 [8]): 15 nM
koff (human FcRn [9]): 0.00048 s⁻¹
Kd (human FcRn [10]): 7.1 nM
